In patent US5985278A (Merck Patent Gesellschaft mit Beschrankter Haftung, priority 1994, dated 1999):
Several values for one entry are separate records, joined by “and”; a condition that tells them apart may be missing. Identical values can stand only once. Like-named read-outs stand apart in the source and are kept apart here. Values belong to the molecule of their own block, whether it stands above or below them.

Assays:
[1] = test system: human melanoma and carcinoma cell lines; assay: αV-mediated cell attachment to vitronectin, cell line panel; type: cell-based; details: read-out: IC50 in cellular assay
Protocol: (§1) Cell Attachment Assays were as previously described (Goodman et al., 1991), using hexosaminidase activity (Landegren, 1984) to detect attached cells. Dilutions and cell suspensions were in attachment buffer (RPMI, 1% BSA, 25 mM HEPES; pH 7.4). Matrix proteins were coated onto 96- or 48-well plates, the wells were blocked with BSA and serially diluted MAbs were added to the wells followed by cells (2.5×10^4 -5×10^4). After 1 h at 37° C., non-adherent cells were washed away and attached cells counted against a standard curve run in parallel. Inhibition of attachment was calculated by using wells with no MAbs as reference. Typically, over 70% of added cells had attached to vitronectin at 1 h. Cell attachment to wells coated with BSA alone was routinely less than 5% of specifically attached cells.

[2] = target: T1, integrin αvβ3 on human cells (human, UniProt P06756)
[3] = target: purified human placental integrin αvβ3 (human) (UniProt P06756); assay: pre-block competition: ligand pre-bound to αvβ3-coated plates, labelled 17E6 as probe
[4] = target: purified human placental integrin αvβ3 (human) (UniProt P06756); assay: isolated receptor assay, vitronectin on αvβ3-coated plates
[5] = target: T2, integrin αvβ5 on human cells (human, UniProt P06756); assay: cell-based or functional assay
[6] = target: T1, integrin αvβ3 on human cells; assay: cell-based or functional assay
[7] = target: purified human placental integrin αvβ3 (human) (UniProt P06756); assay: ELISA on isolated αvβ3
[8] = target: purified human placental integrin αvβ3 (human) (UniProt P06756); assay: direct competition with biotinylated vitronectin on αvβ3-coated plates, 70 nM antibody
[9] = target: human αv-integrin chain on the cell surface (human) (UniProt P06756)
[10] = target: integrin αIIbβ3 on M21-L-IIb cells (human, UniProt P08514); assay: CELISA, fixed M21-L-IIb cells
[11] = target: T2, integrin αvβ5 on human cells; set-up: IC50, M21 cell attachment to vitronectin: unit not given beside the values
[12] = target: human αv-integrin chain on the cell surface (human) (UniProt P06756); set-up: IC50, M21 cell attachment to vitronectin: unit not given beside the values
[13] = target: human αv-integrin chain on the cell surface (human) (UniProt P06756); remark: listed apart in the source
[14] = target: integrin β3 chain, intracellular pool of M21-L cells (human, UniProt P05106); assay: flow cytometry, permeabilized M21-L cells
[15] = target: integrin αvβ1 on V+B2 cells
purified αvβ3 = assay: ELISA on purified αvβ3; type: binding, human; details: FIG. 10
[16] = test system: αvβ3 (WM164 and M21 cells); assay: Cell attachment to vitronectin mediated by αvβ3 (WM164 and M21 cells); type: cell-based, human; details: FIG. 11
Protocol: as §1

αvβ1 (V+B2 cells) = assay: Cell attachment to vitronectin mediated by αvβ1 (V+B2 cells); type: cell-based; details: FIG. 11
Protocol: as §1

αvβ5 (UCLA-P3 cells) = assay: Cell attachment to vitronectin mediated by αvβ5 (UCLA-P3 cells); type: cell-based, human; details: vitronectin, FIG. 11
Protocol: as §1

[17] = target: human αv-integrin chain on the cell surface (human, UniProt P06756); assay: cell-based or functional assay

Molecule: LM609 (antibody)
IC50, WM793 cell attachment to vitronectin [2]: 0.6 mg/L

B2: monoclonal antibody 17E6 (antibody, V domains shown)
VH: QVQLQQSGAELAEPGASVKMSCKASGYTFSSFWMHWVKQRPGQGLEWIGYINPRSGYTECNEIFRDKATMTADTSSSTAYMQLSGLTSEDSAVYYCASFLGRGAMDYWGQGTSVTVSS
VL: DIQMTQTTSSLSASLGDRVIISCRASQDISNYLSWYQQKPDGTVKLLIFYTSKLHSGVPSRFSGSGSGTDYSLTISNLDQEDIATYFCQQGNTFPYTFGGGTKVEMR
IC50, WM164 and M21 cell attachment to vitronectin [6]: ~0.5 µg ml^-1 and ~3 nM
IC50, WM793 cell attachment to vitronectin [6]: ~0.06 mg/L
% inhibition of vitronectin binding [8]: < 30%
IC50, αV-mediated cell attachment [9]: 0.0003 to 0.001 µM
binding result [10]: no binding
IC50, UCLAP3 cell attachment to vitronectin [11]: 0.03 mg/L
IC50, M21 cell attachment to vitronectin [12]: 0.1
M21 cell attachment to vitronectin, purified antibody [12]: 85%
IC50, cellular attachment assay [13]: 0.1 mg/L
binding result [14]: no binding

B4: F(ab')2: F(ab')2 fragment of 17E6 prepared by pepsin cleavage (antibody, V domains shown)
VH: QVQLQQSGAELAEPGASVKMSCKASGYTFSSFWMHWVKQRPGQGLEWIGYINPRSGYTECNEIFRDKATMTADTSSSTAYMQLSGLTSEDSAVYYCASFLGRGAMDYWGQGTSVTVSS
VL: DIQMTQTTSSLSASLGDRVIISCRASQDISNYLSWYQQKPDGTVKLLIFYTSKLHSGVPSRFSGSGSGTDYSLTISNLDQEDIATYFCQQGNTFPYTFGGGTKVEMR
50% saturation in ELISA on isolated αvβ3 (purified αvβ3): ~ 1 ng ml^-1
IC50, αvβ3 attachment (WM164 and M21 cells) [16]: ~ 0.5 μg ml^-1
IC50, cell attachment mediated by αvβ1 (V+B2 cells) (αvβ1 (V+B2 cells)): ~ 0.1 μg ml^-1
IC50, cell attachment mediated by αvβ5 (UCLA-P3 cells) (αvβ5 (UCLA-P3 cells)): ~ 0.1 μg ml^-1

B5: linear peptide GRGDSPK (peptide)
peptide: GRGDSPK
IC50, αV-mediated cell attachment [17]: ~5 µM

The next lines start with the values.

IC50 [1]: ~1 µM
Molecule: CC(C)[C@@H]1NC(=O)[C@@H](Cc2ccccc2)NC(=O)[C@H](CC(=O)O)NC(=O)CNC(=O)[C@H](CCCNC(=N)N)NC1=O [cRGDfV, cyclic peptide: Arg-Gly-Asp-DPhe-Val, reference compound]

% block of labelled 17E6 binding [3]: < 10%
Molecule: fibrinogen (ligand)

saturation concentration [4]: 5 µg ml^-1 and 10 nM
% block of labelled 17E6 binding [3]: < 10%
Molecule: vitronectin (from UniProt P04004) (ligand)

IC50, UCLA-P3 cell attachment to vitronectin [5]: ~0.1 µg ml^-1 and ~700 pM
IC50, WM164 and M21 cell attachment to vitronectin [6]: ~0.5 µg ml^-1 and ~3 nM
EC50 [7]: 0.001 mg/L
B1: 17E6 F(ab')2 fragment (other)
VH: QVQLQQSGAELAEPGASVKMSCKASGYTFSSFWMHWVKQRPGQGLEWIGYINPRSGYTECNEIFRDKATMTADTSSSTAYMQLSGLTSEDSAVYYCASFLGRGAMDYWGQGTSVTVSS
VL: DIQMTQTTSSLSASLGDRVIISCRASQDISNYLSWYQQKPDGTVKLLIFYTSKLHSGVPSRFSGSGSGTDYSLTISNLDQEDIATYFCQQGNTFPYTFGGGTKVEMR

fold activity in cell attachment to vitronectin, against αvβ3 [5]: 10000 fold
IC50, WM164 and M21 cell attachment to vitronectin [6]: > 50 µg ml^-1 and > 400 nM
EC50 [7]: 0.001 mg/L
fold activity in cell attachment to vitronectin, against αvβ3 [15]: 10000 fold
B3: 17E6 F(ab') fragment (Fab, V domains shown)
VH: QVQLQQSGAELAEPGASVKMSCKASGYTFSSFWMHWVKQRPGQGLEWIGYINPRSGYTECNEIFRDKATMTADTSSSTAYMQLSGLTSEDSAVYYCASFLGRGAMDYWGQGTSVTVSS
VL: DIQMTQTTSSLSASLGDRVIISCRASQDISNYLSWYQQKPDGTVKLLIFYTSKLHSGVPSRFSGSGSGTDYSLTISNLDQEDIATYFCQQGNTFPYTFGGGTKVEMR
